Literature values in publication PMC10179296.

Biological target: CCL2 (Homo sapiens) (UniProt P13500)
Assay: isothermal fluorescence titration

Chain of Tenascin-C (P24821 23-2201): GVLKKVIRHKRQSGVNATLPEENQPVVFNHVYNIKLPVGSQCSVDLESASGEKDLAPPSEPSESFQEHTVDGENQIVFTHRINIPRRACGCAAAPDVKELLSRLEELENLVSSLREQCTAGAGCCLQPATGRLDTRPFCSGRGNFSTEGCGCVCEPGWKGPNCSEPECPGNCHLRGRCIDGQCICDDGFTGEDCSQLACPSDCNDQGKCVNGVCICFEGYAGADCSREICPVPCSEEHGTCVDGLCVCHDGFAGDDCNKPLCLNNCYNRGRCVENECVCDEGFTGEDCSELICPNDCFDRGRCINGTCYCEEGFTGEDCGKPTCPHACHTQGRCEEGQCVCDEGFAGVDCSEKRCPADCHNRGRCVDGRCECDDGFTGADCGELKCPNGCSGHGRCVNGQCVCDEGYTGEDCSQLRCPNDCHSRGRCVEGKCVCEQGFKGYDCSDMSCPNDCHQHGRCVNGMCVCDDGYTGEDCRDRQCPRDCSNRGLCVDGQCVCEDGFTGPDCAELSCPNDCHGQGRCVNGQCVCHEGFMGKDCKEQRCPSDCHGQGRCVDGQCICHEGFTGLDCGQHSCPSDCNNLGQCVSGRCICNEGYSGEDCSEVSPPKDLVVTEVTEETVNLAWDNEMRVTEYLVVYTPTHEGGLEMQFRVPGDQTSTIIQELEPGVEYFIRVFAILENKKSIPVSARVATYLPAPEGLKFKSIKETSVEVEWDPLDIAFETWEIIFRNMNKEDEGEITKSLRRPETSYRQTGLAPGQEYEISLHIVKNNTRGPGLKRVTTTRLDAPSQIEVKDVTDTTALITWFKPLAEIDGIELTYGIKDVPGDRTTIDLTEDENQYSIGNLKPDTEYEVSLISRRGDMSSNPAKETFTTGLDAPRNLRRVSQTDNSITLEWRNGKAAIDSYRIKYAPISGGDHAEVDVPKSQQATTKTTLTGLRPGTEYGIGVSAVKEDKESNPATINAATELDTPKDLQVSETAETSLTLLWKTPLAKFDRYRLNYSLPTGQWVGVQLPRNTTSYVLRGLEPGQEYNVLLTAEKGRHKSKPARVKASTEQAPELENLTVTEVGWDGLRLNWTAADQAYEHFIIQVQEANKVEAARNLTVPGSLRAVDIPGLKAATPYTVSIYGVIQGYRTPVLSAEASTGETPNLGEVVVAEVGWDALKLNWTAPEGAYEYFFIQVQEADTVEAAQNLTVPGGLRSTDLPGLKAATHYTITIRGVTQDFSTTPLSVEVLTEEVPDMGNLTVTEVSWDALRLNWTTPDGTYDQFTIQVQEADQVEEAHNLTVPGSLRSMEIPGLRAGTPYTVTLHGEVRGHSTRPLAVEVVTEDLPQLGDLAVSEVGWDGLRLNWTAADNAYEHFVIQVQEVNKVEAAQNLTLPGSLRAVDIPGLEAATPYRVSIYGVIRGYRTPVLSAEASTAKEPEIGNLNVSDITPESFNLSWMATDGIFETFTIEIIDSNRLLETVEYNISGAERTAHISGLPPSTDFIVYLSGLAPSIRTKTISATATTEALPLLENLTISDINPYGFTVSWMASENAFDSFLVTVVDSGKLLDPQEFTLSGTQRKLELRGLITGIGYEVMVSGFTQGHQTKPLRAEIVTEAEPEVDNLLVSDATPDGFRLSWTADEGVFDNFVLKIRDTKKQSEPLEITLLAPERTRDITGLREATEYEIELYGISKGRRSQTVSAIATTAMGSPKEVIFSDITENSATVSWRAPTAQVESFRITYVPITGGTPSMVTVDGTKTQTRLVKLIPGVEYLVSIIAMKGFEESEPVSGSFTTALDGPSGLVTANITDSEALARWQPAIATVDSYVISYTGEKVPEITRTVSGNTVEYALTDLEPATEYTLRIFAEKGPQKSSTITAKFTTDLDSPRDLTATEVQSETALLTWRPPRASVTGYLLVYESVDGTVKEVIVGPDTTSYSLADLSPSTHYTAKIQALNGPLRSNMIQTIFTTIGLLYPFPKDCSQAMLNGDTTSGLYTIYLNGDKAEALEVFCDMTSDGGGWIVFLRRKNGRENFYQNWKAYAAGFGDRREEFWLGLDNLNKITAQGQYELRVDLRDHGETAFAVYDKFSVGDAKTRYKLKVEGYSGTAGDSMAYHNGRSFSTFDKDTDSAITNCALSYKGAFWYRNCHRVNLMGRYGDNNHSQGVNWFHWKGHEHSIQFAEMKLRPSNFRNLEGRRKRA
Chain of CCL2 (Homo sapiens) (P13500 24-99): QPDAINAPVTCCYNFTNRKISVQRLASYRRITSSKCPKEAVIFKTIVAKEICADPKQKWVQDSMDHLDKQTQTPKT

Kd: 2330 nM
Substance: Tenascin-C (from UniProt P24821)
